Read-outs that look alike come from different tables or passages of the source.
Biological target: avidin (Gallus gallus, UniProt P02701)
Settings: for A500 Measurement reagent 1: room temperature 5 minutes
Description: HABA (1 mg) and PBS (33 mL) were mixed to obtain a HABA solution. […] In the reagent, the concentration of avidin was 250 μg/mL, and the concentration of HABA was 30 μg/mL.
A reagent for measuring L-biotin (91.7 μL) was mixed with 0.1 M phosphate buffer (pH 7.5, 18.3 μL) or an L-biotin standard solution (18.3 μL), and the mixture was allowed to stand at room temperature for 5 minutes. Then, the absorbance at 500 nm (A500) of the reaction mixture was measured by spectrophotometer UV-2600 (Shimadzu Corporation). […] As a calibration curve, a straight line by a least squares method was used.
A sample containing the L-biotin-labeled BSA prepared in the above (3.2.1) was diluted 100-fold with 0.1 M phosphate buffer (pH 7.5). A reagent for measuring L-biotin (91.7 μL) and a sample containing diluted L-biotin-labeled BSA (18.3 μL) or a sample containing an L-biotin-labeled antibody (18.3 μL) were mixed, and the mixture was allowed to stand at room temperature for 5 minutes. Then, A500 of the reaction mixture was measured by UV-2600. The amount (μM) of L-biotin contained in each sample was determined from a calibration curve (regression equation) for the reagent for measuring L-biotin.

avidin, sequence (P02701 25-152): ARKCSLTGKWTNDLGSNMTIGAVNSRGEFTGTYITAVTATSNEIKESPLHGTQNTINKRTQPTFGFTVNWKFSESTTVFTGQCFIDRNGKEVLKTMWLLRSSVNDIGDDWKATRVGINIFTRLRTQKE

Biotin concentration (D-biotin in sample, Table 3) [µM]	D-Biotin (from calibration curve, BSA sample value multiplied by 100) [µM]	A500 (sample with Reagent 1 for measuring D-biotin, BSA sample diluted 100-fold)	Compound	A500 Measurement reagent 1 (D-biotin standard solution 25 μM)	A500 Measurement reagent 1 (D-biotin standard solution 50 μM)
–	–	–	O=C(O)CCCC[C@@H]1SC[C@@H]2NC(=O)N[C@@H]21 [D-Biotin, 3aS,4S,6aR-D-biotin]	0.194	0.062
1375.0	1375.0	0.257	D-Bio-BSA: BSA labeled with D-biotin AC5-NHS	–	–

From patent US20230288426A1, “REAGENT FOR MEASURING L-BIOTIN, METHOD FOR MEASURING SAMPLE CONTAINING L-BIOTIN, METHOD FOR DETERMINING NUMBER OF LABELS OF L-BIOTIN-LABELED SUBSTANCE, AND METHOD FOR PRODUCING SOLID PHASE ON WHICH OPTICALLY ISOMERIC BIOTIN-BINDING SITE IS IMMOBILIZED” (SYSMEX CORPORATION, priority 2022, published 2023)
